Measured values published in paper PMC7954794, “Protein context shapes the specificity of SH3 domain-mediated interactions in vivo” (Nature Communications, 2021).

Test system: growth of yeast strains under 51 stress conditions
Experiment: Growth assays in 51 stress conditions (Fig. 1E-F, S2D, S5B)
Assay type: cell-based, Saccharomyces cerevisiae
Set-up: key to Growth (Fig. S2D) / growth of ABP1 SH3-swapped strains in stress condition: log2 colony size, average of median per strain (growth score)
Settings: ABP1 SH3-swapped strains
Summary of the method: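 Colony sizes at 74 h on 51 stress media (37 °C) were log2 transformed, corrected for plate effects, and averaged across two plates as per-plate medians (growth score). Strains arrayed in 12 replicates with WT border, grown first on YPD for two days at 30 °C.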

B1: MYO5 (protein, UniProt Q04439 1-1219, looked up)
Myosin-5: MAILKRGARKKVHQEPAKRSANIKKATFDSSKKKEVGVSDLTLLSKISDEAINENLKKRFLNATIYTYIGHVLISVNPFRDLGIYTDAVMNEYKGKNRLEVPPHVFAIAESMYYNMKSYNENQCVIISGESGAGKTEAAKRIMQYIAAASSTHTESIGKIKDMVLATNPLLESFGCAKTLRNNNSSRHGKYLEIKFNNQFEPCAGNITNYLLEKQRVVSQIKNERNFHIFYQFTKGASDAYRQTFGVQKPEQYVYTAAAGCISAETIDDLQDYQETLKAMRVIGLGQEEQDQIFRMLAAILWIGNVSFIENEEGNAQVRDTSVTDFVAYLLQIDSQLLIKSLVERIMETNHGMKRGSVYHVPLNIVQADAVRDALAKAIYNNLFDWIVSRVNKSLQAFPGAEKSIGILDIYGFEIFEHNSFEQICINYVNEKLQQIFIQLTLKSEQETYEREKIQWTPIKYFDNKVVCDLIEARRPPGIFAAMNDSVATAHADSNAADQAFAQRLNLFTTNPHFDLRSNKFVIKHYAGDVTYDIDGITDKNKDQLQKDLVELIGTTTNTFLATIFPDTVDRESKRRPPTAGDKIIKSANDLVETLSKAQPSYIRTIKPNETKSPNDYDDRQVLHQIKYLGLQENVRIRRAGFAYRQVFEKFVERFYLLSPHCSYAGDYTWQGDTLDAVKYILQDSSIPQQEYQLGVTSVFIKTPETLFALEHMRDRYWHNMAARIQRAWRRFLQRRIDAATKIQRTIRERKEGNKYEKLRDYGTKVLGGRKERRSMSLLGYRAFMGDYLSCNESKSKGAYIKRQVSIKEKVIFSIHGEALHTKFGRSAQRLKKTFLLTPTTLYIVGQTLVQNAMTYTQDYKIDVRNIQAVSLTNLQDDWVAIKLASSGQPDPLINTYFKTELITHLKRLNDKIQIKIGSAIEYQKKPGKLHSVKCQINESAPKYGDIYKSSTISVRRGNPPNSQVHKKPRKKSSISSGYHASSSQATRRPVSIAAAQHVPTAPASRHSKKPAPPPPGMQNKAATRRSVPNPASTLTASQSNARPSPPTAATRATPAATPAAAAMGSGRQANIPPPPPPPPPSSKPKEPMFEAAYDFPGSGSPSELPLKKGDVIYITREEPSGWSLGKLLDGSKEGWVPTAYMKPHSGNNNIPTPPQNRDVPKPVLNSVQHDNTSANVIPAAAQASLGDGLANALAARANKMRLESDDEEANEDEEEDDW
Bathophenanthroline.0.1uM
  Growth (Fig. S2D): 10.7807
Bathophenanthroline.10uM
  Growth (Fig. S2D): 10.5943
Bathophenanthroline.1uM
  Growth (Fig. S2D): 10.7288
CaCl2.100mM
  Growth (Fig. S2D): 10.8763
CaCl2.250mM
  Growth (Fig. S2D): 10.7748
CaCl2.500mM
  Growth (Fig. S2D): 10.1951
Caffein.10mM
  Growth (Fig. S2D): 10.0771
Caffein.2mM
  Growth (Fig. S2D): 10.9616
CdCl2.100uM
  Growth (Fig. S2D): 9.383
CdCl2.10uM
  Growth (Fig. S2D): 10.8746
CdCl2.50uM
  Growth (Fig. S2D): 9.758
CuSO4.1mM
  Growth (Fig. S2D): 10.0515
CuSO4.5mM
  Growth (Fig. S2D): 7.47
Cycloheximide.0.05.uM
  Growth (Fig. S2D): 11.0185
Cycloheximide.0.2.uM
  Growth (Fig. S2D): 10.5753
Cycloheximide.0.5.uM
  Growth (Fig. S2D): 10.0157
DMSO.2.
  Growth (Fig. S2D): 11.0566
DMSO.6.
  Growth (Fig. S2D): 9.912
DMSO.8.
  Growth (Fig. S2D): 9.351
Ethanol.2.
  Growth (Fig. S2D): 10.6973
Ethanol.6.
  Growth (Fig. S2D): 10.1096
Ethanol.8.
  Growth (Fig. S2D): 9.896
Galactose.2.
  Growth (Fig. S2D): 10.7371
Glycerol.2.
  Growth (Fig. S2D): 8.938
Hydroxyurea.25mM
  Growth (Fig. S2D): 10.701
Hygromycin.190uM
  Growth (Fig. S2D): 10.9824
Hygromycin.19uM
  Growth (Fig. S2D): 10.9737
Hygromycin.95uM
  Growth (Fig. S2D): 11.0723
MMS.0.004.
  Growth (Fig. S2D): 10.9048
MMS.0.02.
  Growth (Fig. S2D): 10.5139
MMS.0.04.
  Growth (Fig. S2D): 9.517
Menadione.100uM
  Growth (Fig. S2D): 10.5627
Menadione.200uM
  Growth (Fig. S2D): 10.4133
Menadione.50uM
  Growth (Fig. S2D): 10.7993
NaCl.0.25M
  Growth (Fig. S2D): 10.7283
NaCl.1M
  Growth (Fig. S2D): 9.177
Nitroquinoline.10uM
  Growth (Fig. S2D): 10.6793
Nitroquinoline.50uM
  Growth (Fig. S2D): 10.4598
Nystatin.0.01uM
  Growth (Fig. S2D): 11.0134
Nystatin.0.1uM
  Growth (Fig. S2D): 10.9398
Raffinose.2.
  Growth (Fig. S2D): 10.9979
Rapamycin.10nM
  Growth (Fig. S2D): 9.833
Rapamycin.50nM
  Growth (Fig. S2D): 9.517
SC.pH3
  Growth (Fig. S2D): 10.3672
SC.pH6
  Growth (Fig. S2D): 10.9549
SDS.0.01.
  Growth (Fig. S2D): 10.9651
SDS.0.02.
  Growth (Fig. S2D): 10.9575
SDS.0.05.
  Growth (Fig. S2D): 10.8115
Sorbitol.10mM
  Growth (Fig. S2D): 10.9933
Sorbitol.1mM
  Growth (Fig. S2D): 11.0521
Sorbitol.5mM
  Growth (Fig. S2D): 10.9248

B2: PEX13 (protein, UniProt P80667 1-386, looked up)
Peroxisomal membrane protein …: MSSTAVPRPKPWETSASLEEPQRNAQSLSAMMTSNQQDSRPTEESNNSNSASESAPEVLPRPAALNSSGTYGESNTIPGIYGNSNYGIPYDNNPYSMNSIYGNSIGRYGYGGSYYGNNYGSFYGGGYGAGAGYGMNNGSGLGESTKATFQLIESLIGAVTGFAQMLESTYMATHNSFFTMISVAEQFGNLKEMLGSFFGIFAIMKFLKKILYRATKGRLGIPPKNFAESEGSKNKLIEDFQKFNDSGTINSNEKATRRKISWKPLLFFLMAVFGFPYLLNKFITKLQTSGTIRASQGNGSEPIDPSKLEFARALYDFVPENPEMEVALKKGDLMAILSKKDPLGRDSDWWKVRTKNGNIGYIPYNYIEIIKRRKKIEHVDDETRTH
Bathophenanthroline.0.1uM
  Growth (Fig. S2D): 10.7929
Bathophenanthroline.10uM
  Growth (Fig. S2D): 10.6448
Bathophenanthroline.1uM
  Growth (Fig. S2D): 10.7999
CaCl2.100mM
  Growth (Fig. S2D): 10.8263
CaCl2.250mM
  Growth (Fig. S2D): 10.7201
CaCl2.500mM
  Growth (Fig. S2D): 10.3034
Caffein.10mM
  Growth (Fig. S2D): 10.0127
Caffein.2mM
  Growth (Fig. S2D): 10.9279
CdCl2.100uM
  Growth (Fig. S2D): 9.606
CdCl2.10uM
  Growth (Fig. S2D): 10.8888
CdCl2.50uM
  Growth (Fig. S2D): 9.97
CuSO4.1mM
  Growth (Fig. S2D): 10.4898
CuSO4.5mM
  Growth (Fig. S2D): 8.152
Cycloheximide.0.05.uM
  Growth (Fig. S2D): 11.0541
Cycloheximide.0.2.uM
  Growth (Fig. S2D): 10.6387
Cycloheximide.0.5.uM
  Growth (Fig. S2D): 10.1719
DMSO.2.
  Growth (Fig. S2D): 11.0404
DMSO.6.
  Growth (Fig. S2D): 10.0301
DMSO.8.
  Growth (Fig. S2D): 9.367
Ethanol.2.
  Growth (Fig. S2D): 10.7664
Ethanol.6.
  Growth (Fig. S2D): 10.3235
Ethanol.8.
  Growth (Fig. S2D): 10.0926
Galactose.2.
  Growth (Fig. S2D): 10.787
Glycerol.2.
  Growth (Fig. S2D): 9.849
Hydroxyurea.25mM
  Growth (Fig. S2D): 10.7235
Hygromycin.190uM
  Growth (Fig. S2D): 10.9621
Hygromycin.19uM
  Growth (Fig. S2D): 10.9745
Hygromycin.95uM
  Growth (Fig. S2D): 11.0265
MMS.0.004.
  Growth (Fig. S2D): 10.9502
MMS.0.02.
  Growth (Fig. S2D): 10.7047
MMS.0.04.
  Growth (Fig. S2D): 10.0276
Menadione.100uM
  Growth (Fig. S2D): 10.6371
Menadione.200uM
  Growth (Fig. S2D): 10.4195
Menadione.50uM
  Growth (Fig. S2D): 10.8434
NaCl.0.25M
  Growth (Fig. S2D): 10.6874
NaCl.1M
  Growth (Fig. S2D): 9.71
Nitroquinoline.10uM
  Growth (Fig. S2D): 10.7399
Nitroquinoline.50uM
  Growth (Fig. S2D): 10.726
Nystatin.0.01uM
  Growth (Fig. S2D): 11.0207
Nystatin.0.1uM
  Growth (Fig. S2D): 11.0033
Raffinose.2.
  Growth (Fig. S2D): 10.9918
Rapamycin.10nM
  Growth (Fig. S2D): 9.862
Rapamycin.50nM
  Growth (Fig. S2D): 9.428
SC.pH3
  Growth (Fig. S2D): 10.3898
SC.pH6
  Growth (Fig. S2D): 10.9788
SDS.0.01.
  Growth (Fig. S2D): 10.9752
SDS.0.02.
  Growth (Fig. S2D): 10.9697
SDS.0.05.
  Growth (Fig. S2D): 10.895
Sorbitol.10mM
  Growth (Fig. S2D): 10.9735
Sorbitol.1mM
  Growth (Fig. S2D): 11.0343
Sorbitol.5mM
  Growth (Fig. S2D): 10.9175
